# Experimental data from patent US20260265329A1, “POLYPEPTIDE AND DERIVATIVE THEREOF, COMPOSITION, AND USE THEREOF” (HANGZHOU SCIWIND BIOSCIENCES CO., LTD., priority 2023, published 2026).
# Starred links: 1 amine or outer side, 2 acyl side, 3 side chain; linkers in the order of their positions; H or OH if unused. *: point of attachment. C20 diacid = O=C(O)CCCCCCCCCCCCCCCCCCC(=O)*; γGlu = O=C(O)[C@H](CCC(=O)[*:2])N[*:1]
# Assay: Heat accelerated stability assay, 40° C., detection on 7 d and 28 d
# Assay type: physicochemical
# Description: The derivatives (1 mg/mL) were mixed with sodium dihydrogen phosphate (1.42 mg/mL) and dissolved in ultrapure water. After adjusting pH to about 7.4 with hydrochloric acid/sodium hydroxide, the solution was filtered into a sterilized vial in a clean bench using a 0.22 μm sterile filter. The vial was then capped and placed into the stability test chamber at 40° C. Detections were made on Days 7 (7d) and 28 (28d), and during the assay, changes in the characteristics and properties of the polypeptides were observed and recorded. The sample was then centrifuged for 3 min at 10000 rpm at 4° C., and the supernatant was transferred to a liquid phase sample vial for detecting the concentration and purity of the polypeptides using liquid phase chromatography described as below.
# Conditions of the reversed phase chromatography Flow rate: 1.0 mL/min; Autosampler temperature: 15° C.; Column temperature: 25° C.; Detection wavelength: 214 nm; Mobile phase A: 100% H2O+0.05% TFA; Mobile phase B: 100% ACN; and Gradient of elution listed in Table 4: […]
substance,measurement,setting,value
"M10: ASQLSTAVLQRLADFLRHFTDRDRDILPPTNVGSNTP-NH2 (SEQ ID No. 10), N-terminal side chain C20 diacid + γGlu ({C20 diacid-γGlu}-ASQLSTAVLQRLADFLRHFTDRDRDILPPTNVGSNTP-NH2; SMILES CC[C@H](C)[C@H](NC(=O)[C@H](CC(=O)O)NC(=O)[C@H](CCCNC(=N)N)NC(=O)[C@H](CC(=O)O)NC(=O)[C@H](CCCNC(=N)N)NC(=O)[C@H](CC(=O)O)NC(=O)[C@@H](NC(=O)[C@H](Cc1ccccc1)NC(=O)[C@H](Cc1c[nH]cn1)NC(=O)[C@H](CCCNC(=N)N)NC(=O)[C@H](CC(C)C)NC(=O)[C@H](Cc1ccccc1)NC(=O)[C@H](CC(=O)O)NC(=O)[C@H](C)NC(=O)[C@H](CC(C)C)NC(=O)[C@H](CCCNC(=N)N)NC(=O)[C@H](CCC(N)=O)NC(=O)[C@H](CC(C)C)NC(=O)[C@@H](NC(=O)[C@H](C)NC(=O)[C@@H](NC(=O)[C@H](CO)NC(=O)[C@H](CC(C)C)NC(=O)[C@H](CCC(N)=O)NC(=O)[C@H](CO)NC(=O)[C@H](C)NC(=O)CC[C@H](NC(=O)CCCCCCCCCCCCCCCCCCC(=O)O)C(=O)O)[C@@H](C)O)C(C)C)[C@@H](C)O)C(=O)N[C@@H](CC(C)C)C(=O)N1CCC[C@H]1C(=O)N1CCC[C@H]1C(=O)N[C@H](C(=O)N[C@@H](CC(N)=O)C(=O)N[C@H](C(=O)NCC(=O)N[C@@H](CO)C(=O)N[C@@H](CC(N)=O)C(=O)N[C@H](C(=O)N1CCC[C@H]1C(N)=O)[C@@H](C)O)C(C)C)[C@@H](C)O)","Purity from the reversed phase chromatography-214 nm, 0 d","1 mg/mL, pH about 7.4, 40° C., 0 d, in % (unit assumed)",94.73
same,"Purity from the reversed phase chromatography-214 nm, 7 d","1 mg/mL, pH about 7.4, 40° C., 7 d, in % (unit assumed)",94.89
same,"Purity from the reversed phase chromatography-214 nm, 28 d","1 mg/mL, pH about 7.4, 40° C., 28 d",93.8%
same,Change (7 d − 0 d),"purity on 7 d − purity on 0 d, 40° C., pH about 7.4",0.16%
same,Change (28 d − 0 d),"purity on 28 d − purity on 0 d, 40° C., pH about 7.4, in % (unit assumed)",−0.93
